# Measurements as given in article PMC12269497, “Dimerization of the BAR domain–containing protein FAM92A modulates lipid binding and interaction with CBY1” (The Journal of Biological Chemistry, 2025).
# T1: Trx-Strep-tagged mouse FAM92A BAR domain (amino acids 70-283) (mouse)
# T1 chain: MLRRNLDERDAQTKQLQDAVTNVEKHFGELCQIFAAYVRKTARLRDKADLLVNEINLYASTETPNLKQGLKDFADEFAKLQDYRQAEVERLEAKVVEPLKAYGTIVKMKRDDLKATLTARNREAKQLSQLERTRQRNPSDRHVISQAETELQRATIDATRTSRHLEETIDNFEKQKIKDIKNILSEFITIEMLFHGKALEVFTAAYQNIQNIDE
# Legend:
# [1] = biological target: mouse FAM92A BAR domain (amino acids 70-283), untagged (mouse); experiment: SEC-MALS; typically 200 μl at 70 μM injected; Superose 12 10/300 GL; 50 mM Tris pH 7.5, 1 mM DTT, 1 mM EDTA, 100 mM NaCl
# [2] = biological target: mouse FAM92A BAR domain Mu4 (K169, K183, K194 to glutamic acid) (mouse); experiment: as above
# [3] = biological target: mouse FAM92A BAR domain Mu2 (R201, R203, R205 to glutamic acid) (mouse); experiment: as above
# [4] = biological target: Trx-Strep-tagged mouse FAM92A BAR domain (amino acids 70-283) (mouse); experiment: BLI; Trx-Strep-tagged FAM92A BAR (1 μM) loaded on Strep-Tactin XT probes, His-tagged CBY1 variants in solution; PBS with 0.02% Tween-20 and 0.2% BSA; 1:1 binding model
# [5] = biological target: mouse FAM92A BAR domain (amino acids 70-283), untagged (mouse); experiment: ITC; CBY1 variants (200–300 μM) in the syringe, FAM92A BAR or its dimerization mutants (100–120 μM) in the cell; 25 °C; 50 mM Tris pH 7.5, 1 mM DTT, 1 mM EDTA, 100 mM NaCl; one-site binding model
# [6] = biological target: mouse FAM92A BAR domain Mu5 (R72, K83, K94 to glutamic acid) (mouse); experiment: SEC-MALS; typically 200 μl at 70 μM injected; Superose 12 10/300 GL; 50 mM Tris pH 7.5, 1 mM DTT, 1 mM EDTA, 100 mM NaCl
# [7] = biological target: mouse FAM92A BAR domain Mu1 (K176, K178, R179 to glutamic acid) (mouse); experiment: as above
# [8] = biological target: Trx-tagged full-length mouse FAM92A (mouse); experiment: as above
# [9] = biological target: mouse FAM92A BAR domain Mu3 (R108, K109, R112, R114, K116 to glutamic acid) (mouse); experiment: as above
# [10] = biological target: T1, Trx-Strep-tagged mouse FAM92A BAR …; experiment: BLI
# [11] = biological target: the molecule itself; experiment: SEC-MALS; typically 200 μl at 70 μM injected; Superose 12 10/300 GL; 50 mM Tris pH 7.5, 1 mM DTT, 1 mM EDTA, 100 mM NaCl
molecule,measurement,setting,value
"mouse FAM92A BAR domain (amino acids 70-283), untagged (domain or fragment)",stoichiometry N,[1],2
"mouse FAM92A BAR domain Mu4 (K169, K183, K194 to glutamic acid) (domain or fragment)",stoichiometry N,[2],2
"mouse FAM92A BAR domain Mu2 (R201, R203, R205 to glutamic acid) (domain or fragment)",stoichiometry N,[3],2
"MBP-His-tagged mouse CBY1 4E (L77E, L84E, L91E, L98E) (from UniProt Q9D1C2 1-127) (natural protein)",Kd,[4],5.6 µM
same,Kd,[5],2.8 µM
"mouse FAM92A BAR domain Mu5 (R72, K83, K94 to glutamic acid) (domain or fragment)",stoichiometry N,[6],2
"mouse FAM92A BAR domain Mu1 (K176, K178, R179 to glutamic acid) (domain or fragment)",stoichiometry N,[7],2
Trx-tagged full-length mouse FAM92A (natural protein),stoichiometry N,[8],2
"mouse FAM92A BAR domain Mu3 (R108, K109, R112, R114, K116 to glutamic acid) (domain or fragment)",stoichiometry N,[9],2
Trx-His-tagged mouse CBY1 N-terminal region (amino acids 1-70) (domain or fragment) MPLFGSIFSPKKTPPRKSASLSNLHSLDRSTRELELGLDYGTPTMNLAGQSLKFENGQWVADSVISGGVD,Kd,[10],10.8 µM
same,Kd,[4],10 µM
same,Kd,[5],3.6 µM
"Trx-tagged mouse CBY1 coiled-coil domain (amino acids 61-127) (domain or fragment, UniProt Q9D1C2 61-127, looked up, mouse CBY1, GenBank NP_082910.1, amino acids 61-127 (C-terminal coiled-coil domain); also called CBY1 CC; source: E. coli BL21 (DE3), purified; not shown: Trx, N-terminal, kept) ADSVISGGVDRRETQRLRKRNQQLEEENNLLRLKVDILLDMLSETTAESHLKDKELDELKVTNRRRK",stoichiometry N,[11],2
"MBP-His-tagged full-length mouse Chibby1 (CBY1) (natural protein, UniProt Q9D1C2 1-127, looked up, mouse CBY1, GenBank NP_082910.1, amino acids 1-127; also called CBY1 FL; CBY1-FL; source: E. coli BL21 (DE3), purified (Ni-NTA, SEC); not shown: MBP, N-terminal, kept; His6, N-terminal, kept) MPLFGSIFSPKKTPPRKSASLSNLHSLDRSTRELELGLDYGTPTMNLAGQSLKFENGQWVADSVISGGVDRRETQRLRKRNQQLEEENNLLRLKVDILLDMLSETTAESHLKDKELDELKVTNRRRK",stoichiometry N,[11],2
same,Kd,[4],0.25 µM
same,Kd,[5],0.15 µM
